What is called EC50 is the concentration at which the effect is half-maximal.

This note sets out measurements from patent publication US20240117334A1, “FACTOR B PROTEASES” (Vertex Pharmaceuticals Incorporated, priority 2021, published 2024).

Where “and” joins values, the source holds several entries; their conditions need not be identical. Equal values may be shown once. Read-outs that look alike come from different tables or passages of the source.

Data set [1] is described as follows: Baseline stability in indirect and MTSP buffer (+/-EDTA) and PBS at 37° C., peptide substrate EGVDAE-QF. Type of data set: physicochemical. Conditions: indirect buffer pH 7.4, MTSP buffer. As to the method: Further, various chymase-based engineered proteases were tested to evaluate their baseline stability, by testing the effects of indirect and MTSP buffer (+/−EDTA) on the chymase-based engineered proteases. The peptide substrate EGVDAE-QF (SEQ ID NO: 52) was used for these experiments.
FIGS. 4A-4E depict graphs showing the stability of five different chymase proteases tested using a peptide substrate, in PBS, at 37° C.

Data set [2] addresses T1, Human Factor B (Homo sapiens, UniProt P00751). Description: Human Factor B cleavage EC50 in 80% human plasma (Table 10A). Type of data set: biochemical. As for the experimental part: Cleavage of Factor B by various engineered proteases was evaluated. Engineered chymase-, MTSP-1-, and uPA-based proteases were tested. All references in this Example, including Tables 10A, 10B, 11A, and 11B, to engineered proteases are depicted in chymotrypsin numbering. The chymotrypsin numbering key for the modified protease domains of engineered proteases are found in Tables 2, 4, and 6 for uPA, MTSP-1, and chymase, respectively. These experiments were also performed to evaluate the stability of non-naturally occurring chymases in various media, including cynomolgus monkey vitreous humor, human plasma, and phosphate buffered saline (PBS). Briefly, Factor B was diluted into an assay buffer and incubated at 37° C. with naturally occurring (wild type) and non-naturally occurring (engineered) proteases in vitreous humor, plasma, or PBS, and the reactions were quenched with HCl at various time points. The time points tested for chymase include T=0 which used 6 hours pre-incubation, T=2 hours which used 4 hours pre-incubation, T=4 hours which used 2 hours pre-incubation, and T=6 hours which used 0 hours pre-incubation. Assaying of the sample was performed with ELISA, or alpha screen for human C3 cleavage, using standard protocols.
A summary of the results is presented in Tables 10A-10B below, showing the various tested proteases, the concentration of the protease used in nM and the EC50 of human Factor B cleavage. Table 10 presents human Factor B cleavage by various non-naturally occurring chymase-based engineered proteases, tested in 80% human plasma, compared against a chymase comprising the mutation string […]. Blank cells indicate that a test was not performed for a particular protease mutation string.

A short description of data set [3]: Half-life in 50% human plasma of chymase-based engineered proteases. The data set is classed as in vitro ADME. Conditions: EGVD′AE substrate. As to the method:
Table 10B presents human Factor B cleavage by various engineered chymase-, MTSP-1-, or uPA-based proteases, tested in mouse or human plasma. For ELISA analysis of Factor B cleavage, briefly, anti-Ba was used, and Bb was detected with anti-Bb. A dynamic range of 25-1600 pM was used. Half-life in 50% human plasma was also calculated for various chymase-based engineered proteases.

Data set [4] deals with serpins. Description: Serpin inhibition tests of chymase-based engineered proteases. Type of data set: biochemical. As for the experimental part:
Inhibition tests were carried out using chymase-based engineered proteases. Various serpins, which are capable of inhibiting protease activity, were used to test whether these could be used for adequate inhibition of the tested chymase-based engineered proteases, to enable selection of an engineered protease resistant to inhibition in plasma. All references in this Example to engineered proteases are depicted in chymotrypsin numbering. The chymotrypsin numbering key for the modified protease domains of engineered proteases are found in Tables 2, 4, and 6 for uPA, MTSP-1, and chymase, respectively.

The target in data set [5] is T1, Human Factor B. Description: Human Factor B cleavage EC50 in 80% human plasma (Table 10A). The data set is classed as biochemical. Conditions: chymase-based; 64% plasma; read-out: fB Cleavage, 64% plasma EC50.

T1 sequence (P00751 26-764): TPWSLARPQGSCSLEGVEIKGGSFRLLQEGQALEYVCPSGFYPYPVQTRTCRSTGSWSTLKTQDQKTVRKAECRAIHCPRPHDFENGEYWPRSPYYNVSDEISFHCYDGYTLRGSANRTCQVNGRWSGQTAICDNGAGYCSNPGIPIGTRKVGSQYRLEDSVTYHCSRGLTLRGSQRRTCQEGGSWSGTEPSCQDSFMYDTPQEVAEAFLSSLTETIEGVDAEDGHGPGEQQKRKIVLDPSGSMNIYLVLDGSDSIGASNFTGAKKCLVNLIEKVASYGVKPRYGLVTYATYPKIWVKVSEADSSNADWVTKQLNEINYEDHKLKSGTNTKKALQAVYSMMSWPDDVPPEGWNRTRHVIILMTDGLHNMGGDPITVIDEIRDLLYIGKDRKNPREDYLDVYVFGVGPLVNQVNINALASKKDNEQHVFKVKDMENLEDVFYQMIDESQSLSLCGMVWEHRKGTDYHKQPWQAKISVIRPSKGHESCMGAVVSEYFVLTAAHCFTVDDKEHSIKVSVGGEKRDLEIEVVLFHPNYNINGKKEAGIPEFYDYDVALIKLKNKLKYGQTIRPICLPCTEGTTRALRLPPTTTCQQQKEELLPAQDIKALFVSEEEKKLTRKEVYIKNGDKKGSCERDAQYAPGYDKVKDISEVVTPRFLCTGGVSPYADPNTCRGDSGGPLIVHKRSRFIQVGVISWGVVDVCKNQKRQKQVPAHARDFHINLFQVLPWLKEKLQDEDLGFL

B1: Wild type or naturally occurring chymase: wild type human mast cell chymase protease domain (SEQ ID NO: 6) (protein, listed as Homo sapiens)
chain: IIGGTECKPHSRPYMAYLEIVTSNGPSKFCGGFLIRRNFVLTAAHCAGRSITVTLGAHNITEEEDTWQKLEVIKQFRHPKYNTSTLHHDIMLLKLKEKASLTLAVGTLPFPSQFNFVPPGRMCRVAGWGRTGVLKPGSDTLQEVKLRLMDPQACSHFRDFDHNLQLCVGNPRKTKSAFKGDSGGPLLCAGVAQGIVSYGRSDAKPPAVFTRISHYRPWINQILQAN
In the case of B1, in data set [1], the “stability (remaining activity) in buffers, peptide substrate” value is “loss of activity in all buffers”.

B2: C22S/F173Y/D175N/A226R: chymase-based engineered protease (protein, listed as Homo sapiens)
chain: IIGGTESKPHSRPYMAYLEIVTSNGPSKFCGGFLIRRNFVLTAAHCAGRSITVTLGAHNITEEEDTWQKLEVIKQFRHPKYNTSTLHHDIMLLKLKEKASLTLAVGTLPFPSQFNFVPPGRMCRVAGWGRTGVLKPGSDTLQEVKLRLMDPQACSHYRNFDHNLQLCVGNPRKTKSAFKGDSGGPLLCAGVAQGIVSYGRSDAKPPRVFTRISHYRPWINQILQAN
For the molecule B2, the half-maximal effective concentration (EC50) is 170 nM in data set [2] (Table 20, cleavage activity as of Table 10, unit inferred, read-out: EC50 Fb Cleavage); 151 to 182 nM and 177 nM in data set [2] (chymase-based engineered proteases, no plasma stated, read-out: fB Cleavage EC50); 6000 nM and 5620 nM in data set [5]. Also, the “t1/2 in 50% human plasma (min) (EGVD′AE)(SEQ ID NO: 13)” value in data set [3] is 7.3 min and 9.0 min. For the same molecule, the kapp was determined as 428 M⁻¹ s⁻¹ in data set [4] (Plasma Inhibitor: ACT) and 645 M⁻¹ s⁻¹ in data set [4] (Plasma Inhibitor: alpha-2-marcroglobin (A2M)).
